Results from the Human Domainome abundance scans (Beltran et al. 2025).
± gives the uncertainty stated by the source.

B1: Intersectin-1, residues 909 to 971; numbered along this chain, Q15811 (parent)
chain: QGEKVEGLQAQALYPWRAKKDNHLNFNKNDVITVLEQQDMWWFGEVQGQKGWFPKSYVKLISG

Variants of: B1
Test: abundance fitness (aPCA) (normalised: wild type 0, dead -1); higher = more abundant; growth selection in yeast, the domain comes from the species named
Conditions: Homo sapiens
Work on QGEKVEGLQAQALYPWRAPKDNHLNFNKNDVITVLEQQDMWWFGEVQGQKGWFPKSYVKLISG [K19P] yielded an abundance fitness of -0.139 ± 0.076. Variant QGEKVEGLQAQALYPWRALKDNHLNFNKNDVITVLEQQDMWWFGEVQGQKGWFPKSYVKLISG [K19L] has an abundance fitness of -0.045 ± 0.045. In the case of QGEKVEGLQAQALYPWRAKKDNHLNFNKNDVITVLEQQDMWWFGEVQFQKGWFPKSYVKLISG [G48F], the abundance fitness is reported as -0.522 ± 0.36. Variant QGEKVEDLQAQALYPWRAKKDNHLNFNKNDVITVLEQQDMWWFGEVQGQKGWFPKSYVKLISG [G7D] has an abundance fitness of -0.095 ± 0.12. Work on QGEKVEGLQAQALYPWRAKKDNHLNFNKNDKITVLEQQDMWWFGEVQGQKGWFPKSYVKLISG [V31K] yielded an abundance fitness of -0.006 ± 0.045. QGEKVEGLQAQALYPWRAKKDNHLNFNKNDVITVLEQQDGWWFGEVQGQKGWFPKSYVKLISG [M40G] showed an abundance fitness of -0.109 ± 0.11. QGEKVEGLQAQALYPWFAKKDNHLNFNKNDVITVLEQQDMWWFGEVQGQKGWFPKSYVKLISG [R17F] gave an abundance fitness of -0.141 ± 0.27. For QGEKVEGLQAQALYPWWAKKDNHLNFNKNDVITVLEQQDMWWFGEVQGQKGWFPKSYVKLISG [R17W], the abundance fitness was -0.24 ± 0.25. In the case of QGEKVEGLQAQALYPWRAKKDNHLNFNKNDVWTVLEQQDMWWFGEVQGQKGWFPKSYVKLISG [I32W], the abundance fitness is reported as -0.869 ± 0.2. Work on QGEKVEGLQAQALYPWRAKKDNHLFFNKNDVITVLEQQDMWWFGEVQGQKGWFPKSYVKLISG [N25F] yielded an abundance fitness of -0.491 ± 0.23. Variant QGEKVEGLQAQALYPWRAKKDNHLRFNKNDVITVLEQQDMWWFGEVQGQKGWFPKSYVKLISG [N25R] has an abundance fitness of -0.177 ± 0.13. QGEKVEGLQAQALYPWRAKKDNHLWFNKNDVITVLEQQDMWWFGEVQGQKGWFPKSYVKLISG [N25W] gave an abundance fitness of -0.462 ± 0.17. QGEKVEGLQAQALYPWRAKKDNHLNFNKNDVITVLEQQDMWWFGQVQGQKGWFPKSYVKLISG [E45Q] showed an abundance fitness of 0.067 ± 0.16. Work on QGEKVEGLQAQALYPWRAKKDNHLNFNKNDVITVLEQQDMWWFGEVQGGKGWFPKSYVKLISG [Q49G] yielded an abundance fitness of -0.005 ± 0.14. In the case of QGEKVEGLQAQALYPWRAKKDNHLNFNKNDVITVLEQQDMWWFGEVQGNKGWFPKSYVKLISG [Q49N], the abundance fitness is reported as -0.403 ± 0.38. For QGEKVEGLQAQALYPWRAKKDNHLNFNKNDVITVLEIQDMWWFGEVQGQKGWFPKSYVKLISG [Q37I], the abundance fitness was -0.286 ± 0.3. For QGEKVEGLQAQALYPWRAKKDNHLNFNKNDVITVLEAQDMWWFGEVQGQKGWFPKSYVKLISG [Q37A], the abundance fitness was -0.036 ± 0.21. QGEKVEGLQAQALYPWRAKKDNHLNFNKNDVITVLENQDMWWFGEVQGQKGWFPKSYVKLISG [Q37N] showed an abundance fitness of -0.279 ± 0.22. With QGEKVEGLQAQALYPWRAKKDNHLNFNKNSVITVLEQQDMWWFGEVQGQKGWFPKSYVKLISG [D30S] the abundance fitness was -0.259 ± 0.037. Work on QGEFVEGLQAQALYPWRAKKDNHLNFNKNDVITVLEQQDMWWFGEVQGQKGWFPKSYVKLISG [K4F] yielded an abundance fitness of -0.193 ± 0.27. For QGEKVEGLQAQALYPWRAKKDNHLNFNKNDVITVLEQQDMWWFGEVQGQKGWFPKSYVKSISG [L60S], the abundance fitness was -0.18 ± 0.095. Work on QGEKVEGLQAQALYPKRAKKDNHLNFNKNDVITVLEQQDMWWFGEVQGQKGWFPKSYVKLISG [W16K] yielded an abundance fitness of -0.427 ± 0.18. QGEKVEGLQAQALYPFRAKKDNHLNFNKNDVITVLEQQDMWWFGEVQGQKGWFPKSYVKLISG [W16F] gave an abundance fitness of -0.092 ± 0.21. Variant QGEKVEGLQAQALYPWRAKKDNHLNFNKNDVITVLEQQDMPWFGEVQGQKGWFPKSYVKLISG [W41P] has an abundance fitness of -0.94 ± 0.2. Variant QGEKVEGLQAQALYTWRAKKDNHLNFNKNDVITVLEQQDMWWFGEVQGQKGWFPKSYVKLISG [P15T] has an abundance fitness of -0.059 ± 0.17. QGEKVEGLQAQALYAWRAKKDNHLNFNKNDVITVLEQQDMWWFGEVQGQKGWFPKSYVKLISG [P15A] gave an abundance fitness of 0.017 ± 0.11. Work on QGEKVEGLQAQALYIWRAKKDNHLNFNKNDVITVLEQQDMWWFGEVQGQKGWFPKSYVKLISG [P15I] yielded an abundance fitness of -0.127 ± 0.2. In the case of QGEKVEGLQAQALYPWRAKKDNHLNFNKNDVITVLEQQDMWWFGEVQGQKCWFPKSYVKLISG [G51C], the abundance fitness is reported as -0.709 ± 0.32. For QGEKVEGLQAQALYPWRAKKDNHLNFNKNDVITVLEQQDMWWFGEVQGQKAWFPKSYVKLISG [G51A], the abundance fitness was -0.408 ± 0.2. QGEKVEGLQAQALYPWRAKKDNHLNFNKNDVITVLEQQDMWWFGEVQGQKGWFPKSYVKLIYG [S62Y] gave an abundance fitness of -0.626 ± 0.38. For QGEKVEGLQAQALYPWRAKKDNHLNFNKNDVITVLEQQDMWWFGEVQGQKGWFPKSYVKLIQG [S62Q], the abundance fitness was 0.067 ± 0.45. QGEKVEGLQAQALYPWRAKKDNHLNFNKNDVITTLEQQDMWWFGEVQGQKGWFPKSYVKLISG [V34T] gave an abundance fitness of -0.711 ± 0.22. Work on QGEKVEGLQAQALYPWRAKKDNHLNFNKNDVITRLEQQDMWWFGEVQGQKGWFPKSYVKLISG [V34R] yielded an abundance fitness of -0.776 ± 0.12. QGEKVEGLQAQALYPWRAKKDNHLNFNKNDVITELEQQDMWWFGEVQGQKGWFPKSYVKLISG [V34E] gave an abundance fitness of -0.549 ± 0.19. QGEKVEGLQAQALYPWRAKKDNHLNFNKNDVITVLEQQDMWWFGEVQGQKGWFPKSYVVLISG [K59V] gave an abundance fitness of -0.234 ± 0.12. With QGEKVEGLQAQALYPWRAKKDNHLNFNKNDVITVLEQQDMWWFGEVQGQKGWFPKSYVWLISG [K59W] the abundance fitness was -0.747 ± 0.24. Variant QGEKVLGLQAQALYPWRAKKDNHLNFNKNDVITVLEQQDMWWFGEVQGQKGWFPKSYVKLISG [E6L] has an abundance fitness of -0.1 ± 0.12. QGEKVCGLQAQALYPWRAKKDNHLNFNKNDVITVLEQQDMWWFGEVQGQKGWFPKSYVKLISG [E6C] showed an abundance fitness of -0.174 ± 0.2. With QGEKVEGLQAQALYPWRAKKDNHLNFNKMDVITVLEQQDMWWFGEVQGQKGWFPKSYVKLISG [N29M] the abundance fitness was -0.034 ± 0.12. QGEKVEGLQAQALYPWRAKKDNHLNFNKKDVITVLEQQDMWWFGEVQGQKGWFPKSYVKLISG [N29K] showed an abundance fitness of -0.324 ± 0.3. For QGEKVEGLQAQALYPWRAKKDNHLNFNKTDVITVLEQQDMWWFGEVQGQKGWFPKSYVKLISG [N29T], the abundance fitness was -0.311 ± 0.17. With QGEKVEGLQAQALYPWRAKKDNHLNFNKFDVITVLEQQDMWWFGEVQGQKGWFPKSYVKLISG [N29F] the abundance fitness was -0.196 ± 0.36. In the case of QGEKVEGLQAQALYPWRAKKDNHLNFNKCDVITVLEQQDMWWFGEVQGQKGWFPKSYVKLISG [N29C], the abundance fitness is reported as -0.185 ± 0.12.
